Consider 1 substance from paper PMC2655673.

Common to all, as to test: SFM DNA tethering
Data set [1] concerns the target RAD50;MRE11 (Homo sapiens;Homo sapiens) (UniProt Q92878+P49959).
Data set [2] addresses RAD50;MRE11;NBS1 (Homo sapiens;Homo sapiens;Homo sapiens) (UniProt Q92878+P49959+O60934).
For data set [3], the target named is RAD50;NBS1 (Homo sapiens;Homo sapiens) (UniProt Q92878+O60934).

In the case of 3.0-kb linear DNA fragment, the results for the binding signal (% DNA in tethered complexes) in data set [1], in data set [2] and in data set [3] were 16, 20 and 30, respectively.
